From publication PMC3702631 (Structure (London, England : 1993), 2013)
Changes are numbered by the printed parent chain. In names and notes the source's numbering stands.

B1: mouse TBK1 residues 1-657, K38A (GST tag cleaved) (domain or fragment, UniProt Q9WUN2 1-657, looked up)
chain: MQSTSNHLWLLSDILGQGATANVFRGRHKKTGDLYAVAVFNNISFLRPVDVQMREFEVLKKLNHKNIVKLFAIEEETTTRHKVLIMEFCPCGSLYTVLEEPSNAYGLPESEFLIVLRDVVGGMNHLRENGIVHRDIKPGNIMRVIGEDGQSVYKLTDFGAARELEDDEQFVSLYGTEEYLHPDMYERAVLRKDHQKKYGATVDLWSVGVTFYHAATGSLPFRPFEGPRRNKEVMYKIITGKPSGAISGVQKAENGPIDWSGDMPLSCSLSQGLQALLTPVLANILEADQEKCWGFDQFFAETSDVLHRMVIHVFSLQHMTAHKIYIHSYNTAAVFHELVYKQTKIVSSNQELIYEGRRLVLELGRLAQHFPKTTEENPIFVTSREQLNTVGLRYEKISLPKIHPRYDLDGDASMAKAVTGVVCYACRTASTLLLYQELMRKGVRWLVELVKDDYNETVHKKTEVVITLDFCIRNIEKTVKVYEKLMKVNLEAAELGEISDIHTKLLRLSSSQGTIESSLQDISSRLSPGGLLADTWAHQEGTHPRDRNVEKLQVLLNCITEIYYQFKKDKAERRLAYNEEQIHKFDKQKLYYHATKAMSHFSEECVRKYEAFKDKSEEWMRKMLHLRKQLLSLTNQCFDIEEEVSKYQDYTNELQET
B2: mouse TBK1 residues 1-657, S172A (GST tag cleaved) (domain or fragment, UniProt Q9WUN2 1-657, looked up)
chain: B1 chain with A38K, S172A

Molecular target: the molecule itself
Assay: SEC

Protein | stoichiometry N
B1 | 2
B2 | 2
